Data from patent US20030113711A1, “Protein kinase peptide substrate determination using peptide libraries” (priority 2001, published 2003).
Where a SMILES comes first, the peptide text is derived from it. The star is where a group is joined. Biotin = O=C1N[C@H]2[C@H](CS[C@H]2CCCCC(=O)*)N1; Ahx = NCCCCCC(=O)O

Assays:
[1] = biological target: T1, EGFR (Homo sapiens, UniProt P00533); assay: Kinetic evaluation of peptide substrates, varying peptide at fixed ATP (phosphocellulose filter, [γ-33P]ATP); format: biochemical; conditions: ATP concentration >10 × Km (200 μM ATP); for Kcat: varying peptide, 10 minutes at 23° C.; for Km: Km for peptide
Method: Peptide sequences identified as preferred substrates for ErbB-2 using the methods described in Laboratory Example 3 were synthesized. The kcat and Km values for each peptide were determined as follows, using the kinases ErbB-2, ErbB-4, and EGFR.
Reactions were performed in 96-well polystyrene round bottom plates in a final volume of 45 μL. Reaction mixtures contained 50 mM MOPS, pH 7.5, 10 mM MnCl2, 1 mM dithiothreitol (DTT), 200 μM ATP, 1.0 μCi [γ-^33P] ATP, and varying concentrations of peptide. The reaction was initiated by adding the purified kinase of interest and halted after 10 minutes at 23° C. (room temperature) by adding 45 μL of 0.5% phosphoric acid in water. A 75 μL aliquot of the halted reaction mixture was then transferred to MAPH phosphocellulose filter plates (Millipore, Bedford, Mass.). The plates were filtered three times with 0.2 mL of 0.5 percent phosphoric acid. Scintillation cocktail (50 μL) was added to each well, and the plate was analyzed by counting in a Packard TOPCOUNT® scintillation counter (Packard Instrument Co., Meriden, Conn.). In these assays, the concentration of ATP was greater than ten-fold higher than the Km for ATP, which permitted the kinetic data to be treated as a pseudo-first-order reaction with varying peptide concentration. All experiments were performed in quadruplicate and the average value for each data point was analyzed. The Km and Vmax values were calculated by fitting the data to the Henri-Michaelis-Menten equation by non-linear regression using SIGMAPLOT® (SPSS Science, Chicago, Ill.). kcat values were calculated using the Vmax value, and are based on the protein concentration of the enzyme preparation and an estimate of purity determined from an evaluation of a Coomassie Blue stained SDS-polyacrylamide gel.

[2] = biological target: T1, EGFR; assay: Two-substrate kinetic comparison with known substrate, peptide and ATP varied simultaneously; format: biochemical; conditions: peptide and ATP concentrations varied simultaneously, two-substrate fit
Method: In a separate experiment, the kinetic parameters of both peptide number 1 shown in Table 2, and a peptide with the sequence Biotin-Ahx-G-G-M-E-D-I-Y-F-E-F-M-G-G-K-K-K-amide (SEQ ID NO: 17), which has been previously identified as an ErbB-2 substrate (Jan et. al., (2000), Biochemistry 39: 9786-803), were determined and compared. In this experiment, both peptide and ATP concentrations were varied, and the resulting data was simultaneously fit to an equation representing a two-substrate enzyme reaction using SIGMAPLOT®. Data was collected using the kinases ErbB-2, ErbB-4, and EGFR. The results of this experiment are shown in Table 3 and indicate that for all three kinases tested, peptide number 1 shown in Table 2 is kinetically at least equivalent (based on kcat/Km values) to the known peptide substrate identified by Jan et al.

[3] = biological target: T2, Biotin-Ahx-(SEQ ID NO: 16)-amide
T2 chain: RAHEEEYHFFFAKKK

[4] = biological target: T3, Biotin-Ahx-(SEQ ID NO: 15)-amide
T3 chain: RAHEEEYHFIFAKKK

[5] = biological target: T4, Biotin-Ahx-(SEQ ID NO: 14)-amide
T4 chain: RAHHEEYHFFFAKKK

[6] = biological target: T5, Biotin-Ahx-(SEQ ID NO: 12)-amide
T5 chain: RAHEEIYHFFFAKKK

[7] = biological target: T6, Biotin-Ahx-G-G-M-E-D-I-Y-F-E-F-M-G-G-K-K-K-amide (SEQ ID NO: 17)
T6 chain: GGMEDIYFEFMGGKKK

[8] = biological target: T7, Biotin-Ahx-(SEQ ID NO: 13)-amide
T7 chain: RAHHEIYHFFFAKKK

Q: How did the Kcat [1] turn out when `CC[C@H](C)[C@H](NC(=O)[C@H](CCC(=O)O)NC(=O)[C@H](Cc1c[nH]cn1)NC(=O)[C@H](Cc1c[nH]cn1)NC(=O)[C@H](C)NC(=O)[C@H](CCCNC(=N)N)NC(=O)CCCCCNC(=O)CCCC[C@@H]1SC[C@@H]2NC(=O)N[C@@H]21)C(=O)N[C@@H](Cc1ccc(O)cc1)C(=O)N[C@@H](Cc1c[nH]cn1)C(=O)N[C@@H](Cc1ccccc1)C(=O)N[C@@H](Cc1ccccc1)C(=O)N[C@@H](Cc1ccccc1)C(=O)N[C@@H](C)C(=O)N[C@@H](CCCCN)C(=O)N[C@@H](CCCCN)C(=O)N[C@@H](CCCCN)C(N)=O` [Peptide 2, Biotin-Ahx-(SEQ ID NO: 13)-amide] ({Biotin-Ahx}-RAHHEIYHFFFAKKK-NH2) was run?
A: The Kcat was 0.252 s⁻¹.

Q: What about the Km [1] of the same molecule?
A: Its Km is 105 µM.

Q: `C[C@H](NC(=O)[C@H](CCCNC(=N)N)NC(=O)CCCCCNC(=O)CCCC[C@@H]1SC[C@@H]2NC(=O)N[C@@H]21)C(=O)N[C@@H](Cc1c[nH]cn1)C(=O)N[C@@H](Cc1c[nH]cn1)C(=O)N[C@@H](CCC(=O)O)C(=O)N[C@@H](CCC(=O)O)C(=O)N[C@@H](Cc1ccc(O)cc1)C(=O)N[C@@H](Cc1c[nH]cn1)C(=O)N[C@@H](Cc1ccccc1)C(=O)N[C@@H](Cc1ccccc1)C(=O)N[C@@H](Cc1ccccc1)C(=O)N[C@@H](C)C(=O)N[C@@H](CCCCN)C(=O)N[C@@H](CCCCN)C(=O)N[C@@H](CCCCN)C(N)=O` [Peptide 3, Biotin-Ahx-(SEQ ID NO: 14)-amide] ({Biotin-Ahx}-RAHHEEYHFFFAKKK-NH2) was tested. Which Kcat [1] did it give?
A: Its Kcat is 0.108 s⁻¹.

Q: What about the Km [1] of the same molecule?
A: The Km was 12.2 µM.

Q: Which Kcat [1] does the source give for `C[C@H](NC(=O)[C@H](CCCNC(=N)N)NC(=O)CCCCCNC(=O)CCCC[C@@H]1SC[C@@H]2NC(=O)N[C@@H]21)C(=O)N[C@@H](Cc1c[nH]cn1)C(=O)N[C@@H](CCC(=O)O)C(=O)N[C@@H](CCC(=O)O)C(=O)N[C@@H](CCC(=O)O)C(=O)N[C@@H](Cc1ccc(O)cc1)C(=O)N[C@@H](Cc1c[nH]cn1)C(=O)N[C@@H](Cc1ccccc1)C(=O)N[C@@H](Cc1ccccc1)C(=O)N[C@@H](Cc1ccccc1)C(=O)N[C@@H](C)C(=O)N[C@@H](CCCCN)C(=O)N[C@@H](CCCCN)C(=O)N[C@@H](CCCCN)C(N)=O` [Peptide 5, Biotin-Ahx-(SEQ ID NO: 16)-amide] ({Biotin-Ahx}-RAHEEEYHFFFAKKK-NH2) here?
A: Its Kcat is 0.04 s⁻¹.

Q: What about the Km [1] of the same molecule?
A: Its Km is 7.5 µM.

Q: For `CC[C@H](C)[C@H](NC(=O)[C@H](Cc1ccccc1)NC(=O)[C@H](Cc1c[nH]cn1)NC(=O)[C@H](Cc1ccc(O)cc1)NC(=O)[C@H](CCC(=O)O)NC(=O)[C@H](CCC(=O)O)NC(=O)[C@H](CCC(=O)O)NC(=O)[C@H](Cc1c[nH]cn1)NC(=O)[C@H](C)NC(=O)[C@H](CCCNC(=N)N)NC(=O)CCCCCNC(=O)CCCC[C@@H]1SC[C@@H]2NC(=O)N[C@@H]21)C(=O)N[C@@H](Cc1ccccc1)C(=O)N[C@@H](C)C(=O)N[C@@H](CCCCN)C(=O)N[C@@H](CCCCN)C(=O)N[C@@H](CCCCN)C(N)=O` [Peptide 4, Biotin-Ahx-(SEQ ID NO: 15)-amide] ({Biotin-Ahx}-RAHEEEYHFIFAKKK-NH2), which Kcat [1] is on record?
A: Its Kcat is 0.0567 s⁻¹.

Q: And the Km [1]?
A: Its Km is 10 µM.

Q: Which results are given for `CC[C@H](C)[C@H](NC(=O)[C@H](CC(=O)O)NC(=O)[C@H](CCC(=O)O)NC(=O)[C@H](CCSC)NC(=O)CNC(=O)CNC(=O)CCCCCNC(=O)CCCC[C@@H]1SC[C@@H]2NC(=O)N[C@@H]21)C(=O)N[C@@H](Cc1ccc(O)cc1)C(=O)N[C@@H](Cc1ccccc1)C(=O)N[C@@H](CCC(=O)O)C(=O)N[C@@H](Cc1ccccc1)C(=O)N[C@@H](CCSC)C(=O)NCC(=O)NCC(=O)N[C@@H](CCCCN)C(=O)N[C@@H](CCCCN)C(=O)N[C@@H](CCCCN)C(N)=O` [Biotin-Ahx-(SEQ ID NO: 17)-amide, Biotin-Ahx-G-G-M-E-D-I-Y-F-E-F-M-G-G-K-K-K-amide, reference compound] ({Biotin-Ahx}-GGMEDIYFEFMGGKKK-NH2)?
A: Kcat [2]: 0.218 s⁻¹; Km [2]: 899 µM

Q: For `CC[C@H](C)[C@H](NC(=O)[C@H](CCC(=O)O)NC(=O)[C@H](CCC(=O)O)NC(=O)[C@H](Cc1c[nH]cn1)NC(=O)[C@H](C)NC(=O)[C@H](CCCNC(=N)N)NC(=O)CCCCCNC(=O)CCCC[C@@H]1SC[C@@H]2NC(=O)N[C@@H]21)C(=O)N[C@@H](Cc1ccc(O)cc1)C(=O)N[C@@H](Cc1c[nH]cn1)C(=O)N[C@@H](Cc1ccccc1)C(=O)N[C@@H](Cc1ccccc1)C(=O)N[C@@H](Cc1ccccc1)C(=O)N[C@@H](C)C(=O)N[C@@H](CCCCN)C(=O)N[C@@H](CCCCN)C(=O)N[C@@H](CCCCN)C(N)=O` [Peptide 1, Biotin-Ahx-(SEQ ID NO: 12)-amide] ({Biotin-Ahx}-RAHEEIYHFFFAKKK-NH2), which Kcat [1] is on record?
A: Its Kcat is 0.102 s⁻¹.

Q: And the Km [1]?
A: The Km was 8 µM.

Q: What about the Kcat [2] of the same molecule?
A: Its Kcat is 0.0567 s⁻¹.

Q: What about the Km [2] of the same molecule?
A: Its Km is 128 µM.

B1: ErbB-4 (protein)
chain: RRKSIKKKRALRRFLETELVEPLTPSGTAPNQAQLRILKETELKRVKVLGSGAFGTVYKGIWVPEGETVKIPVAIKILNETTGPKANVEFMDEALIMASMDHPHLVRLLGVCLSPTIQLVTQLMPHGCLLEYVHEHKDNIGSQLLLNWCVQIAKGMMYLEERRLVHRDLAARNVLVKSPNHVKITDFGLARLLEGDEKEYNADGGKMPIKWMALECIHYRKFTHQSDVWSYGVTIWELMTFGGKPYDGIPTREIPDLLEKGERLPQPPICTIDVYMVMVKCWMIDADSRPKFKELAAEFSRMARDPQRYLVIQGDDRMKLPSPNDSKFFQNLLDEEDLEDMMDAEEYLVPQAFNIPPPIYTSRARIDSNRSEIGHSPPPAYTPMSGNQFVYRDGGFAAEQGVSVPYRAPTSTIPEAPVAQGATAEIFDDSCCNGTLRKPVAPHVQEDSSTQRYSADPTVFAPERSPRGELDEEGYMTPMRDKPKQEYLNPVEENPFVSRRKNGDLQALDNPEYHNASNGPPKAEDEYVNEPLYLNTFANTLGKAEYLKNNILSMPEKAKKAFDNPDYWNHSLPPRSTLQHPDYLQEYSTKYFYKQNGRIRPIVAENPEYLSEFSLKPGTVLPPPPYRHRNTVV
Q: With B1 as the molecule, how does the Kcat [3] read?
A: The Kcat was 0.015 s⁻¹.

Q: What about the Km [3] of the same molecule?
A: The Km was 6 µM.

Q: And the kcat/Km [3]?
A: Its kcat/Km is 2500 M⁻¹ s⁻¹.

Q: And the Kcat [4]?
A: The Kcat was 0.0217 s⁻¹.

Q: And the Km [4]?
A: Its Km is 12.5 µM.

Q: What about the kcat/Km [4] of the same molecule?
A: Its kcat/Km is 1670 M⁻¹ s⁻¹.

Q: And the Kcat [5]?
A: Its Kcat is 0.065 s⁻¹.

Q: And the Km [5]?
A: The Km was 13.6 µM.

Q: And the kcat/Km [5]?
A: The kcat/Km was 4670 M⁻¹ s⁻¹.

Q: What about the Kcat [6] of the same molecule?
A: Its Kcat is 0.0683 s⁻¹.

Q: And the kcat [6]?
A: Its kcat is 0.105 s⁻¹.

Q: What about the “kinetic comparison with the known substrate (SEQ ID NO: 17), based on kcat/Km” value [6] of the same molecule?
A: The value was “for all three kinases tested, peptide number 1 shown in Table 2 is kinetically at least equivalent (based on kcat/Km values) to the known peptide substrate identified by Jan et al”.

Q: What about the Km [7] of the same molecule?
A: The Km was 144 µM.

Q: And the kcat [7]?
A: Its kcat is 0.0767 s⁻¹.

Q: And the kcat/Km [7]?
A: The kcat/Km was 533 M⁻¹ s⁻¹.

Q: And the Kcat [8]?
A: The Kcat was 0.0767 s⁻¹.

Q: And the Km [8]?
A: The Km was 37.6 µM.

Q: And the kcat/Km [8]?
A: Its kcat/Km is 2000 M⁻¹ s⁻¹.
